The target of the assay is GFP-BAX fusion protein. Put plainly: cell-based or functional assay.

Consider “mCherry-BCLXL fusion protein (from UniProt Q64373 1-233)”, for which the percentage of cells with punctate GFP-BAX (translocation to mitochondria) within 3.5 h after 1 µM staurosporine, live imaging of D407 cells was 8%.

As for mCherry, the percentage of cells with GFP-BAX translocation to mitochondria within 3.5 h after 1 µM staurosporine, live imaging of D407 cells (control without BCLXL) was > 95%.

For the origin of these results see US20230392166A1.
